Reference: paper PMC9854190

Target: HA-Akt, P31749
Test: co-immunoprecipitation (FLAG beads), HA-Akt band quantified
Conditions: chain shown with the change, HEK-293 cells expressing D3R, n = 3, read off a plot

Sequence of HA-Akt, P31749 (P31749 whole entry): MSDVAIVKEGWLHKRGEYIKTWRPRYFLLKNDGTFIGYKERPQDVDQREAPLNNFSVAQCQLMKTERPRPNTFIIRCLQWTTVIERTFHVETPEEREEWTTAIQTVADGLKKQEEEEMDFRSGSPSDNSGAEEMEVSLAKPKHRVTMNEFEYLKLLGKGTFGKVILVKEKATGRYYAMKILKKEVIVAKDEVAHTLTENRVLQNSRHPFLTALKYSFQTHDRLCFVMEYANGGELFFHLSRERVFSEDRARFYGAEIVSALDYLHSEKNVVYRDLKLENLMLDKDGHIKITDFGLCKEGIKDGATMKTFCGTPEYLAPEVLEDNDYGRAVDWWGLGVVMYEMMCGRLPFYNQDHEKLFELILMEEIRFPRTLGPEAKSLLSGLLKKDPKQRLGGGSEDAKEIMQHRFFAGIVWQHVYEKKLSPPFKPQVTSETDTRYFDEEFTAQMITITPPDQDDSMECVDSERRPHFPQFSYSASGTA

- other: Folds of Co-IP (Quin +, parent: est. 0.97): 0.74 fold
- other: Folds of Co-IP (Veh (Quin -), parent: est. 0.97): 0.9 fold
B1: FLAG-USP33, Q8TEY7-2 T154A (protein)
chain: MSAFRNHCPHLDSVGEITKEDLIQKSLGTCQDCKVQGPNLWACLENRCSYVGCGESQVDHSTIHSQETKHYLTVNLTTLRVWCYACSKEVFLDRKLGTQPSLPHVRQPHQIQENSVQDFKIPSNTTLKTPLVAVFDDLDIEADEEDELRARGLAGLKNIGNTCYMNAALQALSNCPPLTQFFLDCGGLARTDKKPAICKSYLKLMTELWHKSRPGSVVPTTLFQGIKTVNPTFRGYSQQDAQEFLRCLMDLLHEELKEQVMEVEEDPQTITTEETMEEDKSQSDVDFQSCESCSNSDRAENENGSRCFSEDNNETTMLIQDDENNSEMSKDWQKEKMCNKINKVNSEGEFDKDRDSISETVDLNNQETVKVQIHSRASEYITDVHSNDLSTPQILPSNEGVNPRLSASPPKSGNLWPGLAPPHKKAQSASPKRKKQHKKYRSVISDIFDGTIISSVQCLTCDRVSVTLETFQDLSLPIPGKEDLAKLHSSSHPTSIVKAGSCGEAYAPQGWIAFFMEYVKRFVVSCVPSWFWGPVVTLQDCLAAFFARDELKGDNMYSCEKCKKLRNGVKFCKVQNFPEILCIHLKRFRHELMFSTKISTHVSFPLEGLDLQPFLAKDSPAQIVTYDLLSVICHHGTASSGHYIAYCRNNLNNLWYEFDDQSVTEVSESTVQNAEAYVLFYRKSSEEAQKERRRISNLLNIMEPSLLQFYISRQWLNKFKTFAEPGPISNNDFLCIHGGVPPRKAGYIEDLVLMLPQNIWDNLYSRYGGGPAVNHLYICHTCQIEAEKIEKRRKTELEIFIRLNRAFQKEDSPATFYCISMQWFREWESFVKGKDGDPPGPIDNTKIAVTKCGNVMLRQGADSGQISEETWNFLQSIYGGGPEVILRPPVVHVDPDILQAEEKIEVETRSL
- other: Folds of Co-IP (Quin w/+ (desensitization condition), parent: est. 1.7): 0.86 fold
